Experimental data: US20260097113A1 (Pfizer, published 2026)

Experiments:
[1] = molecular target: RSV A + RSV B bivalent composition (RSV subtype A; RSV subtype B); assay: AM14 Fab titration by SEC; High-Slow 2 cycle; 8 M 25°C
[2] = molecular target: RSV A + RSV B bivalent composition (RSV subtype A; RSV subtype B); assay: AM14 Fab titration by SEC; High-Slow 2 cycle; 8 M 2-8°C
[3] = molecular target: RSV A + RSV B bivalent composition (RSV subtype A; RSV subtype B); assay: AM14 Fab titration by SEC; Target cycle; T0
[4] = molecular target: T1, RSV F protein of subtype A comprising a polypeptide of SEQ ID NO: 1 and a polypeptide of SEQ ID NO: 2 (RSV subtype A, UniProt P11209 137-513; P03420 26-109); assay: AM14 ELISA; F7 (pH 6, 100 mM NaCl, 0% sucrose); T0
T1 construct: Stabilized prefusion F trimer made of three F2-F1 heterodimers; Produced recombinantly in CHO cells; also called RSV A; RSVA
T1 chain 1: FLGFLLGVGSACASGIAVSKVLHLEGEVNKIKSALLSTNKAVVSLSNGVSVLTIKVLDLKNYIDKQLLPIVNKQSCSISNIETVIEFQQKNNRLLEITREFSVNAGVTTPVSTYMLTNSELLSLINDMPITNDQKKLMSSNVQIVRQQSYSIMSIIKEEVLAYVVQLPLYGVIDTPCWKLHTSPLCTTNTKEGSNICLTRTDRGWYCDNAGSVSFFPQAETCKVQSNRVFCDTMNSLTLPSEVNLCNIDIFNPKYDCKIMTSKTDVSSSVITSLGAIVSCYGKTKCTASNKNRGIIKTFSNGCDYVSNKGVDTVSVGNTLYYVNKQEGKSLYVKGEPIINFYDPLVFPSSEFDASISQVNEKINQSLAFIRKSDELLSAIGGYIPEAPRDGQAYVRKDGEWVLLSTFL
T1 chain 2: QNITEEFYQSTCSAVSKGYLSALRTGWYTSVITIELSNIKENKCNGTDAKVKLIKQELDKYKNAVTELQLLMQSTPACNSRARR

[5] = molecular target: T1, RSV F protein of subtype A comprising a …; assay: AM14 ELISA; F2 (pH 8, 0 mM NaCl, 0% sucrose); 1 wk 5°C
[6] = molecular target: T1, RSV F protein of subtype A comprising a …; assay: AM14 ELISA; F8 (pH 7, 50 mM NaCl, 0% sucrose); 1 wk 5°C
[7] = molecular target: T1, RSV F protein of subtype A comprising a …; assay: AM14 ELISA; F5 (pH 6, 100 mM NaCl, 9.0% sucrose); T0
[8] = molecular target: T1, RSV F protein of subtype A comprising a …; assay: AM14 ELISA; F11 (pH 7, 50 mM NaCl, 9.0% sucrose); T0
[9] = molecular target: T1, RSV F protein of subtype A comprising a …; assay: AM14 ELISA; F14 (pH 7, 50 mM NaCl, 4.5% sucrose); 1 wk 5°C
[10] = molecular target: T1, RSV F protein of subtype A comprising a …; assay: AM14 ELISA; F2 (pH 8, 0 mM NaCl, 0% sucrose); 1 wk 25°C
[11] = molecular target: T1, RSV F protein of subtype A comprising a …; assay: AM14 ELISA; F14 (pH 7, 50 mM NaCl, 4.5% sucrose); 2 wk 5°C
[12] = molecular target: T1, RSV F protein of subtype A comprising a …; assay: AM14 ELISA; F16 (pH 6, 0 mM NaCl, 0% sucrose); 2 wk 5°C
[13] = molecular target: T1, RSV F protein of subtype A comprising a …; assay: AM14 ELISA; F15 (pH 6, 0 mM NaCl, 9% sucrose); 1 wk 5°C
[14] = molecular target: T1, RSV F protein of subtype A comprising a …; assay: AM14 ELISA; F6 (pH 7, 0 mM NaCl, 4.5% sucrose); T0
[15] = molecular target: T1, RSV F protein of subtype A comprising a …; assay: AM14 ELISA; F7 (pH 6, 100 mM NaCl, 0% sucrose); 2 wk 5°C
[16] = molecular target: T1, RSV F protein of subtype A comprising a …; assay: AM14 ELISA; F11 (pH 7, 50 mM NaCl, 9.0% sucrose); 1 wk 25°C

Molecule: AM14 Fab
- Prefusion Content (%) [1]: 71%
- Prefusion Content (%) [2]: 72%
- Prefusion Content (%) [3]: 68%

B1: AM14 (trimeric prefusion specific antibody of the AM14 ELISA) (antibody, V domains shown)
VH: EVQLVESGGGVVQPGRSLRLSCAASGFSFSHYAMHWVRQAPGKGLEWVAVISYDGENTYYADSVKGRFSISRDNSKNTVSLQMNSLRPEDTALYYCARDRIVDDYYYYGMDVWGQGATVTVSS
VL: DIQMTQSPSSLSASVGDRVTITCQASQDIKKYLNWYHQKPGKVPELLMHDASNLETGVPSRFSGRGSGTDFTLTISSLQPEDIGTYYCQQYDNLPPLTFGGGTKVEIKR
notes: Antibody as used in the AM14 ELISA, detected with an HRP-labeled secondary antibody
- AM14 prefusion content (%), relative to standard [4]: 88%
- AM14 prefusion content (%), relative to standard [5]: 86%
- AM14 prefusion content (%), relative to standard [6]: 99%
- AM14 prefusion content (%), relative to standard [7]: 91%
- AM14 prefusion content (%), relative to standard [8]: 102%
- AM14 prefusion content (%), relative to standard [9]: 85%
- AM14 prefusion content (%), relative to standard [10]: 58%
- AM14 prefusion content (%), relative to standard [11]: 78%
- AM14 prefusion content (%), relative to standard [12]: 67%
- AM14 prefusion content (%), relative to standard [13]: 86%
- AM14 prefusion content (%), relative to standard [14]: 99%
- AM14 prefusion content (%), relative to standard [15]: 38%
- AM14 prefusion content (%), relative to standard [16]: 91%
